Results from patent US20210087281A1 (AGOMAB THERAPEUTICS, published 2021).

How the values were obtained:
[1] = biological target: T1, native mouse MET on living cells (mouse, UniProt P16056 25-1379); assay: flow cytometry, MLP29 cells
T1 construct: whole, on cells; also called Mouse cells (MLP29); mouse epithelial cells expressing MET
Experimental: (§1) We also analysed whether chimeric anti-MET antibodies bound to native human and mouse MET in living cells. […] Antibody binding to cells was analysed by flow cytometry using phycoerythrin-conjugated anti-human IgG1 antibodies (eBioscience) and a CyAn ADP analyser (Beckman Coulter). As a positive control for human MET binding, we used a commercial mouse anti-human MET antibody (R&D Systems) and phycoerythrin-conjugated anti-mouse IgG1 antibodies (eBioscience).
(§2) As a positive control for mouse MET binding we used a commercial goat anti-mouse MET antibody (R&D Systems) and phycoerythrin-conjugated anti-goat IgG1 antibodies (eBioscience). […] Consistent with the data obtained in ELISA, maximal binding (EMAX) varied depending on antibody, but was similar in human and mouse cells.

[2] = biological target: T1, native mouse MET on living cells; assay: cell-based or functional assay
[3] = biological target: T2, native human MET on living cells (human, UniProt P08581 25-1390); assay: cell-based or functional assay
T2 sequence (P08581 25-1390): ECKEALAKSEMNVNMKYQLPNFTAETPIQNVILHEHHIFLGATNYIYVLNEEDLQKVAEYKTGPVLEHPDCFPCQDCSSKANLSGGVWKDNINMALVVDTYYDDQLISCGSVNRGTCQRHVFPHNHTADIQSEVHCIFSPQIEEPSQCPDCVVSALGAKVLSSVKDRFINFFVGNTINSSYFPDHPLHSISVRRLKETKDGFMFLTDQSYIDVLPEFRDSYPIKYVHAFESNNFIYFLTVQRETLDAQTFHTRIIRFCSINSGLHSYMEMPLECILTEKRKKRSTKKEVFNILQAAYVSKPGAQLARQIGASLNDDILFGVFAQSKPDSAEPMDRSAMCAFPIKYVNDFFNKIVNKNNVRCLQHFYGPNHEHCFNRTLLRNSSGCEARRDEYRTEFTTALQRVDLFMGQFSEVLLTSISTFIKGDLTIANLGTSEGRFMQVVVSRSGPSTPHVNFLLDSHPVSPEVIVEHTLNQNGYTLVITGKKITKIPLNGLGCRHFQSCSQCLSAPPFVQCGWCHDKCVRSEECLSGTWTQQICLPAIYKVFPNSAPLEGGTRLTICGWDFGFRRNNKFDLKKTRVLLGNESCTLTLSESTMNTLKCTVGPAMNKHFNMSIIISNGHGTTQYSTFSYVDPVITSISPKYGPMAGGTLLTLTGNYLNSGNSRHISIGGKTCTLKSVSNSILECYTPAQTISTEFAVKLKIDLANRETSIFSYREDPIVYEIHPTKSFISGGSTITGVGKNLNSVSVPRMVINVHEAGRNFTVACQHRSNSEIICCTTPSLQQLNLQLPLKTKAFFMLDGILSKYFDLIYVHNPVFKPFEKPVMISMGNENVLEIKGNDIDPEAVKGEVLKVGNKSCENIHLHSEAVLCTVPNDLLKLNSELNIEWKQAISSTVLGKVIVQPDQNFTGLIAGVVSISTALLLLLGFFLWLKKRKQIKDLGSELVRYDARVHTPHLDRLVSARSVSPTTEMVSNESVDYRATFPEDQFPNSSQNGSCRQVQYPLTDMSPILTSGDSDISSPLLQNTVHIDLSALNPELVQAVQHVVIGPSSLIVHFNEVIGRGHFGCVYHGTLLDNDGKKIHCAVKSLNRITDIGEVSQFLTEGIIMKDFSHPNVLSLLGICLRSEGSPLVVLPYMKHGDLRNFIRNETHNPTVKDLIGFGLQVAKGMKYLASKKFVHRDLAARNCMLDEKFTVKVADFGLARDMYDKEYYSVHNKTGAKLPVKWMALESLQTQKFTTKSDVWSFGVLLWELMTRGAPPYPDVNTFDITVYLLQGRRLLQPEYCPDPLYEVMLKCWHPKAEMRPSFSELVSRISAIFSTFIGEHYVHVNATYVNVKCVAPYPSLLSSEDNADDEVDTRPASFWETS

[4] = biological target: T3, mouse MET-Fc (R&D Systems) (mouse, UniProt P16056 25-929, limits assumed); assay: competition ELISA, mMET-Fc in solid phase, competitor 0.3 nM biotinylated mHGF
T3 construct: bought chimeric protein; also called mMET; not shown: Fc part
Experimental: (§3) To investigate along this line, we tested the competition between mAbs and HGF by ELISA. Recombinant human and mouse HGF (R&D Systems) were biotinylated at the N-terminus using NHS-LC-biotin (Thermo Scientific). MET-Fc protein, either human or mouse (R&D Systems), was immobilized in solid phase and then exposed to 0.3 nM biotinylated HGF, either human or mouse, in the presence of increasing concentrations of antibodies (0-120 nM).
(§4) A MET-Fc chimeric protein (either human or mouse) was immobilized in solid phase and exposed to a fixed concentration of biotinylated HGF (either human or mouse), in the presence of increasing concentrations of antibodies. […] Antibody-HGF competition is expressed as IC₅₀ (the concentration that achieves 50% competition) and IMAX (the maximum % competition reached at saturation).

human MET ECD = biological target: T4, human MET ECD (human, UniProt P08581 25-932); assay: ELISA, MET ECD in solid phase, mAb 0-20 nM
T4 construct: range 1-932; recombinant ECD made by the applicants; the stated range begins at residue 1, so it includes the signal peptide of the entry; also called hMET; hMET ECD
T4 sequence (P08581 25-932 limits assumed, form in doubt): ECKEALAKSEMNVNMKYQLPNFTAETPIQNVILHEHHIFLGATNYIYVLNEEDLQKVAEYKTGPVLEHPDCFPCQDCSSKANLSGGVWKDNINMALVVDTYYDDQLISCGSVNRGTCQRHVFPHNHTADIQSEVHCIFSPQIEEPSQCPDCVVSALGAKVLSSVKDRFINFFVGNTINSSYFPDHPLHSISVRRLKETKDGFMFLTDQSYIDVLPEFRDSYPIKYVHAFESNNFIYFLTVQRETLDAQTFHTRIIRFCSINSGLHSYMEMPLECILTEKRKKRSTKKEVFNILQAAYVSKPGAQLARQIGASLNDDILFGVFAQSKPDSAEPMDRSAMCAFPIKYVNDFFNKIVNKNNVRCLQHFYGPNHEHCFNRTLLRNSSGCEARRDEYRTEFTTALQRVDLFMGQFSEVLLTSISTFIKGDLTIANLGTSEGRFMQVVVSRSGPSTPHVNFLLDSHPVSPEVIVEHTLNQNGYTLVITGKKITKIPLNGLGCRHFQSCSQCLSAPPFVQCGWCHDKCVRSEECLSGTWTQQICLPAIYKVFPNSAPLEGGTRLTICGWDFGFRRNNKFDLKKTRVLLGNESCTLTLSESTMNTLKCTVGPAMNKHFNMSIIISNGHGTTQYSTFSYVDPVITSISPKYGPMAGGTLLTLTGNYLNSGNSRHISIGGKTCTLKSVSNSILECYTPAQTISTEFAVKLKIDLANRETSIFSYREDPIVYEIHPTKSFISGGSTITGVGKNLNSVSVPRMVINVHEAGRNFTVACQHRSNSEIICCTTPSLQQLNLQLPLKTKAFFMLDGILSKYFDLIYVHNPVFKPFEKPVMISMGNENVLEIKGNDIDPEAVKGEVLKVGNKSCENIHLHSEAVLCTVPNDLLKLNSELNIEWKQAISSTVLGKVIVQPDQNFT
Experimental: (§5) Production (by transient transfection of mammalian cells) and purification (by protein A affinity chromatography) of the resulting chimeric llama-human IgG1 molecules was outsourced to U-protein Express. Binding of chimeric mAbs to MET was determined by ELISA using hMET or mMET ECD in solid phase and increasing concentrations of antibodies (0-20 nM) in solution. […] Binding capacity (EMAX) varied from antibody to antibody, possibly due to partial epitope exposure in the immobilized antigen, but was similar in the human and mouse setting.

mouse MET ECD = biological target: T5, mouse MET ECD (mouse, UniProt P16056 25-931); assay: ELISA, MET ECD in solid phase, mAb 0-20 nM
T5 construct: range 1-931; recombinant ECD made by the applicants; the stated range begins at residue 1; also called mMET; mMET ECD
Experimental: as §5

[5] = biological target: T6, human MET-Fc (R&D Systems) (human, UniProt P08581 25-932); assay: competition ELISA, hMET-Fc in solid phase, competitor 0.3 nM biotinylated hHGF
T6 construct: extracellular domain; bought chimeric protein; also called hMET; not shown: Fc portion of human IgG1
T6 sequence (P08581 25-932): as the sequence (P08581 25-932 limits assumed, form in doubt) above
Experimental: as §3, §4

[6] = biological target: T1, native mouse MET on living cells; assay: cell-based or functional assay; remark: listed apart in the source
[7] = biological target: T2, native human MET on living cells; assay: cell-based or functional assay; remark: listed apart in the source
[8] = biological target: T2, native human MET on living cells; assay: flow cytometry, A549 cells
Experimental: as §1, §2

[9] = biological target: T1, native mouse MET on living cells; assay: cell-based or functional assay; remark: listed apart in the source
[10] = biological target: T2, native human MET on living cells; assay: cell-based or functional assay; remark: listed apart in the source
[11] = biological target: T1, native mouse MET on living cells; assay: cell-based or functional assay; remark: listed apart in the source
[12] = biological target: T2, native human MET on living cells; assay: cell-based or functional assay; remark: listed apart in the source

B1: 72F8 chimeric llama-human IgG1 mAb (antibody, V domains shown)
VH: ELQLVESGGGLVQPGGSLRLSCAASGFTFSNYVMSWVRQAPGKGLEWVSDTNSGGSTSYADSVKGRFTISRDNAKNTLYLQMNSLKPEDTALYYCARSFFYGMNYWGKGTQVTVSS
VL: QSALTQPPSLSASPGSSVRLTCTLSSGNNIGSYDISWYQQKAGSPPRYLLNYYTDSRKHQDSGVPSRFSGSKDASANAGLLLISGLQPEDEADYYCSAYKSGSYRWVFGGGTHVTVL
notes: llama VH on human IgG1 CH1-CH2-CH3, llama VL on human lambda CL
EC50 [1]: 0.359 nM
EMAX [1]: 172 % relative to control
phospho-MET ELISA EC50, MLP29 cells [2]: 0.79 nM
phospho-MET ELISA EMAX (% HGF activity), MLP29 cells [2]: 66.8%
phospho-MET ELISA EC50, A549 cells [3]: 1.51 nM
phospho-MET ELISA EMAX (% HGF activity), A549 cells [3]: 69.7%
IC50 [4]: 0.52 nM
IMAX [4]: 72.8%
EC50 (human MET ECD): 0.064 nM
EMAX (OD450) (human MET ECD): 2.78 AU
EC50 (mouse MET ECD): 0.048 nM
EMAX (OD450) (mouse MET ECD): 2.9 AU
IC50 [5]: 0.45 nM
IMAX [5]: 77.3%
branches per spheroid, MLP29 cells, 0.5 nM [6]: 12.7 branches
branches per spheroid, MLP29 cells, 2.5 nM [6]: 11.7 branches
branches per spheroid, MLP29 cells, 12.5 nM [6]: 18.7 branches
branches per spheroid, LOC cells, 0.5 nM [7]: 9 branches
branches per spheroid, LOC cells, 2.5 nM [7]: 12.3 branches
branches per spheroid, LOC cells, 12.5 nM [7]: 16 branches
EC50 [8]: 0.371 nM
EMAX [8]: 156 % relative to control
protection from staurosporine, viability EC50, MLP29 cells [9]: > 32 nM
protection from staurosporine, viability EMAX, MLP29 cells [9]: 43.8%
protection from staurosporine, viability EC50, MCF10A cells [10]: > 32 nM
protection from staurosporine, viability EMAX, MCF10A cells [10]: 35.8%
scatter score 0-4, MLP29, 0.001 nM [11]: 0 score
scatter score 0-4, MLP29, 0.004 nM [11]: 0 score
scatter score 0-4, MLP29, 0.012 nM [11]: 0 score
scatter score 0-4, MLP29, 0.037 nM [11]: 0 score
scatter score 0-4, MLP29, 0.111 nM [11]: 0 score
scatter score 0-4, MLP29, 0.333 nM [11]: 0 score
scatter score 0-4, MLP29, 1.000 nM [11]: 1 score
scatter score 0-4, MLP29, 3.000 nM [11]: 2 score
scatter score 0-4, MLP29, 9.000 nM [11]: 3 score
scatter score 0-4, HPAF-II, 0.001 nM [12]: 0 score
scatter score 0-4, HPAF-II, 0.004 nM [12]: 0 score
scatter score 0-4, HPAF-II, 0.012 nM [12]: 0 score
scatter score 0-4, HPAF-II, 0.037 nM [12]: 0 score
scatter score 0-4, HPAF-II, 0.111 nM [12]: 0 score
scatter score 0-4, HPAF-II, 0.333 nM [12]: 0 score
scatter score 0-4, HPAF-II, 1.000 nM [12]: 1 score
scatter score 0-4, HPAF-II, 3.000 nM [12]: 2 score
scatter score 0-4, HPAF-II, 9.000 nM [12]: 3 score

B2: 74C8 chimeric llama-human IgG1 mAb (antibody, V domains shown)
VH: EVQLVESGGGLVQPGGSLRLSCAASGFTFRNYHMSWVRQVPGKGFEWISDINSAGGSTYYADSVKGRFTISRDNAKNTLYLEMNSLKPEDTALYYCARVNVWGVNYWGKGTLVSVSS
VL: QTVVTQEPSLSVSPGGTVTLTCGLSSGSVTTSNYPGWFQQTPGQAPRTLIYNTNSRHSGVPSRFSGSISGNKAALTITGAQPEDEADYYCSLYPGSYTNVFGGGTHLTVL
notes: as for B1
EC50 [1]: 0.208 nM
EMAX [1]: 73.8 % relative to control
phospho-MET ELISA EC50, MLP29 cells [2]: 0.41 nM
phospho-MET ELISA EMAX (% HGF activity), MLP29 cells [2]: 102%
phospho-MET ELISA EC50, A549 cells [3]: 0.52 nM
phospho-MET ELISA EMAX (% HGF activity), A549 cells [3]: 87.6%
IC50 [4]: 0.49 nM
IMAX [4]: 71.5%
EC50 (human MET ECD): 0.09 nM
EMAX (OD450) (human MET ECD): 0.994 AU
EC50 (mouse MET ECD): 0.116 nM
EMAX (OD450) (mouse MET ECD): 0.896 AU
IC50 [5]: 0.43 nM
IMAX [5]: 76.9%
branches per spheroid, MLP29 cells, 0.5 nM [6]: 17.3 branches
branches per spheroid, MLP29 cells, 2.5 nM [6]: 15.3 branches
branches per spheroid, MLP29 cells, 12.5 nM [6]: 22.3 branches
branches per spheroid, LOC cells, 0.5 nM [7]: 10.3 branches
branches per spheroid, LOC cells, 2.5 nM [7]: 17 branches
branches per spheroid, LOC cells, 12.5 nM [7]: 18.7 branches
EC50 [8]: 0.235 nM
EMAX [8]: 85.7 % relative to control
protection from staurosporine, viability EC50, MLP29 cells [9]: > 32 nM
protection from staurosporine, viability EMAX, MLP29 cells [9]: 37.5%
protection from staurosporine, viability EC50, MCF10A cells [10]: > 32 nM
protection from staurosporine, viability EMAX, MCF10A cells [10]: 41.7%
scatter score 0-4, MLP29, 0.001 nM [11]: 0 score
scatter score 0-4, MLP29, 0.004 nM [11]: 0 score
scatter score 0-4, MLP29, 0.012 nM [11]: 0 score
scatter score 0-4, MLP29, 0.037 nM [11]: 1 score
scatter score 0-4, MLP29, 0.111 nM [11]: 2 score
scatter score 0-4, MLP29, 0.333 nM [11]: 3 score
scatter score 0-4, MLP29, 1.000 nM [11]: 3 score
scatter score 0-4, MLP29, 3.000 nM [11]: 4 score
scatter score 0-4, MLP29, 9.000 nM [11]: 4 score
scatter score 0-4, HPAF-II, 0.001 nM [12]: 0 score
scatter score 0-4, HPAF-II, 0.004 nM [12]: 0 score
scatter score 0-4, HPAF-II, 0.012 nM [12]: 0 score
scatter score 0-4, HPAF-II, 0.037 nM [12]: 1 score
scatter score 0-4, HPAF-II, 0.111 nM [12]: 2 score
scatter score 0-4, HPAF-II, 0.333 nM [12]: 3 score
scatter score 0-4, HPAF-II, 1.000 nM [12]: 3 score
scatter score 0-4, HPAF-II, 3.000 nM [12]: 4 score
scatter score 0-4, HPAF-II, 9.000 nM [12]: 4 score
